Experiments:
Format in all cases: cell-based, human
PBMC = PBMC activation markers, immobilized antibody plus low dose anti-CD3; conditions: immobilized antibody 10 μg/well plus anti-CD3 0.025 μg/well
Protocol: Ten μg of anti-ICAM-R monoclonal antibodies ICR-1.1 or ICR-4.2 (or control monoclonal antibodies to HLA Class I; Serotec, Oxford, England) were added per well of 96-well flat bottom tissue culture plates either in the presence or absence of anti-CD3 antibody initially added at 0.025 μg/well and washed to remove unbound antibody. Freshly obtained PBMC were immediately added (2×10^5 cells/well). The cells were then incubated for a total of either 16 hours or 3 days at which time the cells were removed and washed 2 times in ice cold FACS buffer. Two×10^5 cells were then resuspended in 50 μl ice cold FACS buffer, and 5 μl of FITC-conjugated anti-CD69, anti-transferrin receptor, anti-IL-2 receptor antibody or anti-FITC conjugated control Ig was added. The cells were incubated at 4° C. for 30 minutes and then washed 2 times in 0.5 ml ice cold FACS buffer. After the final wash the cells were resuspended in 0.5 ml FACS buffer and fluorescence determined by FACScan analysis. […] The effect was more pronounced with antibody ICR-1.1. Similar results were also obtained after 16 hours in culture.

[1] = test system: PBMC and CD4+ T-lymphocytes; assay: Costimulation of anti-CD3 induced lymphocyte proliferation; conditions: anti-CD3 G19 0.001 μg/well; antibody 10 μg/well; 3 days
Protocol: Because anti-ICAM-R antibodies with anti-CD3 antibodies costimulated early PBMC activation events, anti-ICAM-R antibodies were tested for the ability to costimulate lymphocyte proliferation induced by immobilized anti-CD3 antibody. In addition, to determine whether anti-ICAM-R antibodies costimulate T-lymphocytes in the absence of accessory cells, anti-ICAM-R antibodies were tested for their ability to costimulate proliferation of pure CD4^+ T-lymphocytes, isolated using negative'selection. To isolate CD4^+ cells PBMC were suspended in tissue culture medium, added to 75 ml tissue culture flasks (Corning) and incubated for 1 hour at 37° C., 5% CO2. Plastic nonadherent cells were then removed from the flask by gently rinsing once with PBS. The nonadherent cell fraction was suspended (10^7 cells/ml) in an antibody cocktail containing 1 μg/ml anti-CD8 antibody (Pharmingen, San Diego, Calif.), 1 μg/ml anti-CD19 (Becton Dickinson), 1 μg/ml anti-CD11b (Becton Dickinson) in 10% FBS-PBS (coating medium), and incubated for 1 hour at 4° C. Unbound antibody was removed by washing twice in coating medium. […] Lymphocyte proliferation was measured by ^3H-thymidine incorporation by the PMBC or CD4^+ cells. […]

Jurkat T leukemic cells = assay: F-actin and G-actin cell content
Protocol: Cellular shape changes (such as cell spreading) as well as T-cell activation are associated with changes in the cytoskeletal actin network manifested by alteration of the ratio of globular actin (G-actin) to filamentous actin (F-actin). To test whether the engagement by ICAM-R antibodies of ICAM-R expressed on Jurkat T leukemic cells would induce changes in cellular actin ratios, studies measuring F-actin and G-actin cell content were carried out by methods known in the art.

B1: ICR-1.1: anti-ICAM-R monoclonal antibody, IgG2a, domain 1, ATCC HB 11053 (antibody, V domains shown)
VH: QVQLQQSGAELAKPGASVKMSCKASGYTFTVYWMHWVKQRPGQGLEWIGYINPNTDYTEYNQRFQDKATLTADKSSSTAYMQLSSLTSEDSAVYYCARWGGNSYGLDYWGQGTSVTVSS
VL: QIVLTQSPALMSASPGEKVTMTCSASSSVSYIYWYQQKPRSSPKPWIYLTSNLASGVPARFSGSGSGASYSLTISIMEAEDAATYYCQQWKSIPLTFGAGTKLELK
PBMC activation marker expression after 16 hours (PBMC): induced expression of CD69, but not the transferrin receptor | PBMC activation marker expression after 3 days (PBMC): significant upregulation of both the transferrin and IL-2 receptors | proliferative response to immobilized anti-CD3 [1]: increased the PBMC and purified CD4^+ cell response to anti-CD3 | time to peak F-actin content (Jurkat T leukemic cells; OKT3 plus gam, ICR-1.1 without gam): ≤ 60 min | F-actin content (Jurkat T leukemic cells; OKT3 plus goat anti-mouse crosslinker (gam), ICR-1.1 without gam): slight transient increase in F-actin content | cellular G-actin (Jurkat T leukemic cells; with gam crosslinker): gradual decrease in cellular G-actin | rise of F-actin content (Jurkat T leukemic cells; with gam crosslinker, prolonged plateau): 75-100%

From patent US20040248211A1, “ICAM-related protein” (priority 1992, published 2004)
